According to paper PMC11074131, “ASS1 inhibits triple-negative breast cancer by regulating PHGDH stability and de novo serine synthesis” (Cell Death & Disease, 2024):

T1: His-PHGDH (UniProt O43175 1-533)
T1 construct: also called PHGDH-F; full-length PHGDH; source: E. coli BL21 DE3, purified
T1 sequence (looked up): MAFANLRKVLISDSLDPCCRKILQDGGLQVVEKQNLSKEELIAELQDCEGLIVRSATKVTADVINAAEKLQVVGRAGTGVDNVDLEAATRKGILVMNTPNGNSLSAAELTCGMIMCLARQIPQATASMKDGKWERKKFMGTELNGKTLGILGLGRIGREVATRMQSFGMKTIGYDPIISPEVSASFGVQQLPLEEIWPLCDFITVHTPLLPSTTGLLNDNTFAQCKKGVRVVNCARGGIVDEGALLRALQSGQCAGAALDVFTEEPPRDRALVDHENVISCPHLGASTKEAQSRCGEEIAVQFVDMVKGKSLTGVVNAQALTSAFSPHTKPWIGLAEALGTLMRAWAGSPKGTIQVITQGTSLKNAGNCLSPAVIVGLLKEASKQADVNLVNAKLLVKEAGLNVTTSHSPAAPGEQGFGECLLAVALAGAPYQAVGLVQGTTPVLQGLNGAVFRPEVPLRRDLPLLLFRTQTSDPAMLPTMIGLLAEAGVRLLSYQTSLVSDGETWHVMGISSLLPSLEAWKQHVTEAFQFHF

T2: GST-PHGDH (UniProt O43175 1-533)
T2 construct: also called recombinant GST-PHGDH; source: E. coli BL21 DE3, purified
T2 sequence (looked up): T1 sequence (looked up)

B1: GST-ASS1 (natural protein, human, UniProt P00966 1-412, looked up)
chain: MSSKGSVVLAYSGGLDTSCILVWLKEQGYDVIAYLANIGQKEDFEEARKKALKLGAKKVFIEDVSREFVEEFIWPAIQSSALYEDRYLLGTSLARPCIARKQVEIAQREGAKYVSHGATGKGNDQVRFELSCYSLAPQIKVIAPWRMPEFYNRFKGRNDLMEYAKQHGIPIPVTPKNPWSMDENLMHISYEAGILENPKNQAPPGLYTKTQDPAKAPNTPDILEIEFKKGVPVKVTNVKDGTTHQTSLELFMYLNEVAGKHGVGRIDIVENRFIGMKSRGIYETPAGTILYHAHLDIEAFTMDREVRKIKQGLGLKFAELVYTGFWHSPECEFVRHCIAKSQERVEGKVQVSVLKGQVYILGRESPLSLYNEELVSMNVQGDYEPTDATGFININSLRLKEYHRLQSKVTAK
notes: also called recombinant GST-ASS1; source: E. coli BL21 DE3, purified
B2: His-ASS1 (natural protein, human, UniProt P00966 1-412, looked up)
chain: B1 chain
notes: also called recombinant His-ASS1; source: E. coli BL21 DE3, purified
B3: PHGDH N-314 (catalytic domain) (domain or fragment, UniProt O43175 1-314, looked up)
chain: MAFANLRKVLISDSLDPCCRKILQDGGLQVVEKQNLSKEELIAELQDCEGLIVRSATKVTADVINAAEKLQVVGRAGTGVDNVDLEAATRKGILVMNTPNGNSLSAAELTCGMIMCLARQIPQATASMKDGKWERKKFMGTELNGKTLGILGLGRIGREVATRMQSFGMKTIGYDPIISPEVSASFGVQQLPLEEIWPLCDFITVHTPLLPSTTGLLNDNTFAQCKKGVRVVNCARGGIVDEGALLRALQSGQCAGAALDVFTEEPPRDRALVDHENVISCPHLGASTKEAQSRCGEEIAVQFVDMVKGKSLTG
notes: also called catalytic domain of PHGDH; source: E. coli BL21 DE3, purified

Legend:
Settings in all cases: both partners purified
His-PHGDH = biological target: T1, His-PHGDH; experiment: pull-down; purified GST-ASS1 immobilised on MagneGST Glutathione Particles; purified His-PHGDH or its truncated forms added overnight at 4 °C; washed with PBST; western blot; GST as negative control
GST-PHGDH = biological target: T2, GST-PHGDH; experiment: pull-down; purified GST-PHGDH immobilised on MagneGST Glutathione Particles; purified His-ASS1 added overnight at 4 °C; washed with PBST; western blot; GST as negative control
GST-ASS1 = biological target: B1; experiment: pull-down; purified GST-ASS1 immobilised on MagneGST Glutathione Particles; purified His-PHGDH or its truncated forms added overnight at 4 °C; washed with PBST; western blot; GST as negative control

Binder: B1
binding result (His-PHGDH): binds

Binder: B2
binding result (GST-PHGDH): binds

Binder: B3
binding result (GST-ASS1): binds
